Source: patent publication US20060270591A1, “Androgen receptor coregulators” (priority 2002, published 2006)

T1: PR (Homo sapiens, UniProt P06401)
T1 construct: expressed in transfected cells; host or cells: DU145, PC-3
T1 sequence (P06401 1-933): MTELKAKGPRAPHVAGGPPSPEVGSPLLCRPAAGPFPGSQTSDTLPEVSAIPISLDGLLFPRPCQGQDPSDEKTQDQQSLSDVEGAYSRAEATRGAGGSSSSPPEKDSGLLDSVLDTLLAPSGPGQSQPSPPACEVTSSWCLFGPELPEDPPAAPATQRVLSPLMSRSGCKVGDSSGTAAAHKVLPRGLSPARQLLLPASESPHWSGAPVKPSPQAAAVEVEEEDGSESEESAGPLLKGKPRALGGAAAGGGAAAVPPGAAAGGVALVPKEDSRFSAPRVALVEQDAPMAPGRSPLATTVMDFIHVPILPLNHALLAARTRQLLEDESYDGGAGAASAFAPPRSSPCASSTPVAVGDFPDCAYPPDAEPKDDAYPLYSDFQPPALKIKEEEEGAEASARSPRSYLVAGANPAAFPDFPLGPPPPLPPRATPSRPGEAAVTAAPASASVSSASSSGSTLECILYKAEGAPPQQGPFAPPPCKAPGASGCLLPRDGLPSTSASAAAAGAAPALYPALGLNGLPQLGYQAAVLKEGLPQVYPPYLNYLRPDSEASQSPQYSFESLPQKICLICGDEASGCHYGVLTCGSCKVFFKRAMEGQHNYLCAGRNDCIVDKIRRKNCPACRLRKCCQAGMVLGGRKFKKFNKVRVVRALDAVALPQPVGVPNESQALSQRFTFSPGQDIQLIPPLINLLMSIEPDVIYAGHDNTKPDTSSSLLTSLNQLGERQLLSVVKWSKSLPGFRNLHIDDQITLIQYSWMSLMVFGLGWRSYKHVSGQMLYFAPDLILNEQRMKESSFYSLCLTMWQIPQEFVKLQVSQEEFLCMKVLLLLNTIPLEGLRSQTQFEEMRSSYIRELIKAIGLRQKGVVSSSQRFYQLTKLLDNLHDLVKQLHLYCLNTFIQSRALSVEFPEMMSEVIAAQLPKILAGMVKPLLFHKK

T2: GR (Homo sapiens, UniProt P04150)
T2 sequence (P04150 1-777): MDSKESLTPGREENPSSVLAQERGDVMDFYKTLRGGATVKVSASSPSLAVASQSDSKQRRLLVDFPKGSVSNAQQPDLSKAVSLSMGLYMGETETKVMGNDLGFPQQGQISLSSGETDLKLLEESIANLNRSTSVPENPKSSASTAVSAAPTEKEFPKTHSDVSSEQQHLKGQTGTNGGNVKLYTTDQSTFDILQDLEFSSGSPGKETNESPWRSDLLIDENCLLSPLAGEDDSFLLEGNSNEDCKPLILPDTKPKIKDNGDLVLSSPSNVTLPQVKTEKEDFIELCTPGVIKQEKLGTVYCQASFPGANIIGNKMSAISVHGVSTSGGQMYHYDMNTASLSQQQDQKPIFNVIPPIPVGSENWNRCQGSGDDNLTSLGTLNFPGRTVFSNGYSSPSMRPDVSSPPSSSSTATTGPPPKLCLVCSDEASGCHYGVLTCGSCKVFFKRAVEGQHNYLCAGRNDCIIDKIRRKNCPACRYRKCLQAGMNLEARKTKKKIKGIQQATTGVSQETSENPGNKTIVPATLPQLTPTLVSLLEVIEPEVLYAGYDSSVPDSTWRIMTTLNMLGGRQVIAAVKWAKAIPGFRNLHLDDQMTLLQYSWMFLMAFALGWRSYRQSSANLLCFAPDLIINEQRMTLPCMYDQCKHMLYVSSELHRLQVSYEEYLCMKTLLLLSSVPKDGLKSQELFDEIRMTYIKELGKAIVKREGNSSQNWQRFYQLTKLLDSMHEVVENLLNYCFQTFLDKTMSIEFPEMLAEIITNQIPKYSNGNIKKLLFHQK

B1: C′-ARA54: C-terminal region (amino acids 361-474) of ARA54 (protein)
chain: RNEYLQADEANKRLLDQRYGKRVIQKALEEMESKEWLEKNSKSCPCCGTPIEKLDGCNKMTCTGCMQYFCWICMGSLSRANPYKHFNDPGSPCFNRLFYAVDVDDDIWEDEVED
modifications: Homo sapien
notes: C-terminal region (amino acids 361-474) of ARA54
B2: ARA54: 54 kDa protein that interacts with AR in an androgen-dependent manner; AR coactivator (protein)
chain: MSSEDREAQEDELLALASIYDGDEFRKAESVQGGETRIYLDLPQNFKIFVSGNSNECLQNSGFEYTICFLPPLVLNFELPPDYPSSSPPSFTLSGKWLSPTQLSALCKHLDNLWEEHRGSVVLFAWMQFLKEETLAYLNIVSPFELKIGSQKKVQRRTAQASPNTELDFGGAAGSDVDQEEIVDERAVQDVESLSNLIQEILDFDQAQQIKCFNSKLFLCSICFCEKLGSECMYFLECRHVYCKACLKDYFEIQIRDGQVQCLNCPEPKCPSVATPGQVKELVEAELFARYDRLLLQSSLDLMADVVYCPRPCCQLPVMQEPGCTMGICSSCNFAFCTLCRLTYHGVSPCKVTAEKLMDLRNEYLQADEANKRLLDQRYGKRVIQKALEEMESKEWLEKNSKSCPCCGTPIEKLDGCNKMTCTGCMQYFCWICMGSLSRANPYKHFNDPGSPCFNRLFYAVDVDDDIWEDEVED

What was measured:
PR = target: T1, PR; assay: PR transactivation reporter gene assay (Example 2); format: cell-based
Method: (§1) 12. […] PC-3 (A) or DU145 (B) cells were transfected with MMTV-CAT (2.5 μg), steroid receptor expression plasmid (AR, PR, or GR; 1.0 μg for PC-3 and 0.75 μg for DU145), and pSG5-C′-ARA54 (C′) or pSG5-mt-ARA54 (mt) (8.0 μg for PC-3 and 6.75 μg for DU145), with (for DU145) or without (for PC-3) pSG5-fl-ARA54 (2.25 μg). The total amount of DNA was adjusted to 12.5-13.25 μg with pSG5 for each transfection. […] The CAT activity is presented relative to that of vector alone with cognate ligand in each panel (black bars; set as 100%). Values represent the mean±SD of at least three determinations.
(§2) 394. The human prostate cancer cell lines, LNCaP, PC-3, and DU145, were maintained in Dulbecco's minimum essential medium (DMEM) containing 5% fetal calf serum (FCS). Transfections using the calcium phosphate precipitation method and chloramphenicol acetyltransferase (CAT) and luciferase (Luc) assays were performed as previously described (Miyamoto et al. (1998) Proc. Natl. Acad. Sci. U.S.A. 95, 7379-7384; Yeh et al. (1999) Endocrine 11, 195-202; Miyamoto et al. (1998) Proc. Natl. Acad. Sci. U.S.A. 95, 11083-11088). Briefly, 1-4×10^5 cells were plated on 35-mm or 60-mm dishes 24 h before adding the precipitation mix containing a CAT or Luc reporter gene and a β-galactosidase expression plasmid (pCMV-β-gal) as an internal control for normalization of transfection efficiency. The medium was changed to phenol-red-free DMEM with 5% charcoal-stripped FCS 1 h before transfection. In each experiment, the total amount of transfected DNA per dish was maintained as a constant by addition of empty expression vector (pSG5 or pVP16, as appropriate). […] The cells were then harvested and whole cell extracts were used for CAT or Luc assay. The CAT activity was quantitated with a PhosphorImager (Molecular Dynamics). The Luc assay was determined using a Dual-Luciferase Reporter Assay System (Promega) and luminometer.

GR = target: T2, GR; assay: GR transactivation reporter gene assay (Example 2); format: cell-based; set-up: expressed in transfected cells; host or cells: PC-3
Method: as §1, §2

| Molecule | effect on fl-ARA54-induced PR transcription (PR; DU145 cells) | effect on PR-mediated transactivation (PR; PC-3 cell line, presence of P) | effect on fl-ARA54-induced GR transactivation (GR; DU145 cells) | effect on GR transactivation (GR; PC-3 cell line) | induction of PR transcription (PR; DU145 cells, cotransfected with PR) | induction of GR transcription activity (GR; DU145 cells, cotransfected with GR) |
| --- | --- | --- | --- | --- | --- | --- |
| B1 | little effect | only a marginal effect | little effect | only marginally repressed | – | – |
| B2 | – | – | – | – | 2.9 fold | 1.6 fold |
